Literature values, collected in US20220119510A1, “ANTI-POLYETHYLENE GLYCOL (PEG) ANTIBODY MOUSE MODEL FOR RIGOROUS ASSESSMENT OF PEG-BASED THERAPIES: ADJUVANT-FREE INDUCTION MODEL” (Northwestern University, priority 2020, published 2022).

System: rabbits

B1: PEGylated ovalbumin: PEGylated ovalbumin used to immunize rabbits (conjugate, UniProt P01012 2-386, looked up)
Ovalbumin: GSIGAASMEFCFDVFKELKVHHANENIFYCPIAIMSALAMVYLGAKDSTRTQINKVVRFDKLPGFGDSIEAQCGTSVNVHSSLRDILNQITKPNDVYSFSLASRLYAEERYPILPEYLQCVKELYRGGLEPINFQTAADQARELINSWVESQTNGIIRNVLQPSSVDSQTAMVLVNAIVFKGLWEKAFKDEDTQAMPFRVTEQESKPVQMMYQIGLFRVASMASEKMKILELPFASGTMSMLVLLPDEVSGLEQLESIINFEKLTEWTSSNVMEERKIKVYLPRMKMEEKYNLTSVLMAMGITDVFSSSANLSGISSAESLKISQAVHAAHAEINEAGREVVGSAEAGVDAASVSEEFRADHPFLFCIKHIATNAVLFFGRCVSP
modifications: PEGylated
notes: PEGylated ovalbumin used to immunize rabbits
  anti-PEG antibodies after immunization: anti-PEG antibodies were first observed
